Laboratory results taken from the supplement of paper PMC12042874.
± gives the uncertainty stated by the source.

Assay: amyloid nucleation score (Sup35N fusion, yeast selection) (log enrichment); library NNK3; higher = more nucleation; inactive = no reads after selection
Procedure, shortened: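 The nucleation score, computed with DiMSum, is the log enrichment of output over input reads, centred on the mode score of non-aggregating sequences. Sequences with under 100 input reads were dropped. Reads were generated by Illumina sequencing of plasmid inserts from psi-negative yeast with Sup35N fused to peptides of 20 random codons, induced with 100 μM copper sulfate for 24 hours and grown 7 days at 30°C on medium lacking adenine and uracil.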

Substance | amyloid nucleation score
NPRNMTPSLVFTDWLS | inactive
IMKACGDK | inactive
RSEVRR | -0.013 ± 0.51
DDKRTENG | inactive
TKYCSLPHDQDCVHKFITTV | inactive
DSTEVRYQNPMTTLRGVVFW | inactive
FNWTKS | inactive
RCYCCPRTDSLGMG | inactive
LLVLKYVMSRTWWSWGA | inactive
WSLCGDVRTQHINHVSVQVS | inactive
GSLIMSLAR | inactive
KLYNLFWNVETMVERLLLVA | inactive
DPPHWVDFSRFR | inactive
SCCGRKMRPGRFEIIDKFCI | 0.523 ± 0.24
YSLNGAY | inactive
WDNWSTIRWTVYALSRKSAR | inactive
MWPNITLFFSWRTEVLLYLI | inactive
TYMCQVFNILDSQKYCYMRR | inactive
SHVKYNNMW | inactive
SMRSRCNFFTVCSAWLSFWE | inactive
YAPFWS | inactive
IEFGYLGT | inactive
WMFLDTSGDIMPRGLTDYLE | inactive
QPMKLRT | inactive

Substance | amyloid nucleation score
LYLSLFGQVPYSS | -0.473 ± 0.98
WPLYGLDWNPLGFNLRWYKF | inactive
RIKAYVGLFTVSWGSWGRRR | 1.44 ± 0.14
SWNTL | inactive
MAMLS | inactive
GEIANSQVRKWLIEMYSPVV | inactive
FLMHSKVTSCGVWSLYFADV | 1.44 ± 0.15
CIGTI | inactive
CLCKLEWHNTYMGYKR | 2.63 ± 0.08
YSNRVGNAYMGSLKTSWHVM | inactive
CGNHASVWRIGTVRKD | inactive
GNSDR | inactive
RNFRRVSSRF | inactive
YWIAIFTLHFLLDPRFRNSM | inactive
ILLRQKHVHNY | inactive
KWNNCDF | inactive
VWLRGDVLGMTLHGCSIVTR | inactive
KVGSKVLEIFINTHYNWYCR | 0.145 ± 0.53
WYALYAKYASTPGFCACLRG | inactive
DECSAHSSFQLSKSILFGQV | inactive
NQWLCLHLCQR | inactive
AYSRIHSWRMVCKRSNNGVG | 1.41 ± 0.1
NRTDHTLNCVEIFAWIWFNL | inactive
CMDYYKMYISYYFDAGWVLS | inactive

Substance | amyloid nucleation score
LERTNWCQYHL | inactive
SLMDVN | inactive
KYRPLKSCAHVMRDSIKSGC | inactive
SPFCFSCIHACWGNEKIRWV | inactive
GWLKNNYSTYDTEKKFTATF | inactive
SVSGRPGEMFSRYYWIYGMY | inactive
QRYSLHDINEDYRYDWVNGL | inactive
YFYLSICDVSMVGSEFIYSR | 0.373 ± 0.2
ASRTAHVSEVQFGCAPGSER | inactive
DMISFKMLQYCWCSSCVFSH | 2.18 ± 0.088
VYQSTSKF | inactive
LRRDCFLDRSSLRHPVWEWL | inactive
LSSLVSSSTSCWLWIRTNRL | inactive
CINNLYGRNVGSYGECEPFA | inactive
LWIIKGYKSYSNHQWNWGM | inactive
CQQIWRLGQCVQLLFCTRSK | 1.31 ± 0.11
VGKFRLMIHVTSHYGFCDLF | inactive
KWSKILAPFILFLKLKSNCS | inactive
SSEVYQALPPMS | inactive
LYWRSTGVSVWVRWVLYG | inactive
TSTRHDGGFMVMWYLLGLTR | inactive
ETRFWNLIHADYIRMIGAGF | inactive
LLCIFDSRCERLNVLAFRYV | inactive
ILLMLSVQGNLLKRMRILSM | inactive

Substance | amyloid nucleation score
KYVLSKI | inactive
RSQWLFISKKFDLAIYIAV | inactive
YMRAIHRCCAYLVRGLGSGT | inactive
MAQIRATIFMMMSANVDRYM | inactive
VNDWWVSGW | inactive
VLCVETTCPVGDIMECCLLP | inactive
VLGVEECGYWLD | inactive
LNMIHSVA | inactive
FVRSQSCS | inactive
WIVVENW | inactive
RIIAGWTYRSSQIWYFRDPH | inactive
FAICSYANAEVSWKDGESAY | inactive
SLDWCIRVITGGLRSVVRA | inactive
IRDASWTKNLEFECLLFKPS | inactive
LPGCSTWFGVFFIHDFNLTL | 1.69 ± 0.091
GKDSCKTTLVSRRLLRLKAP | inactive
HYILLG | inactive
EIIFLS | inactive
LASPVNETDTLHRALQMLSK | inactive
AMVRNVYSCLRNRTCFLSSL | inactive
CFVGLRSGAVSCWGQGNYVA | inactive
CGDAPRQVVVGPRYKRSMES | -0.193 ± 0.65
GFYAE | inactive
DCWYHMPHQIWH | inactive

Substance | amyloid nucleation score
LGAAASSGRPMLTKYHLFWA | inactive
MYTLCQMLNVRTRDMTCVTR | inactive
STYRHLDRSL | inactive
FADVGTEFSCQEVNMKTHPS | inactive
NRSIIVIWWNSRSSSNSWVG | 2.1 ± 0.072
HYADRTAWPSACASLYSHAL | inactive
PCPFILFYSEFTWSRY | inactive
LGSLVLLRFWY | -0.181 ± 1.4
THHWKFGSNPSFR | inactive
DTLLRKFWVIIVIGTALGSM | inactive
WLIKYPGYW | inactive
MNGDSAMWFSISS | inactive
FDDVGSNSLHCIMMHELLGV | inactive
YVCDRL | inactive
YNLRYLVYYLDLLSPVNQMG | inactive
ITPTFYVARTKPMLTGGCPK | inactive
SFPLPS | inactive
NRTCNDLMTFYSWGSSR | inactive
NFGQTGRCYKRLRFC | inactive
YCKSPVSANMHMNNGNTGSC | inactive
WCFCGWMYIISFLSYKKHIM | inactive
QSWLMPFCLVSSTWKV | inactive
RIPKTKRYHPCYVRLRRSVY | inactive
